# Test results from paper doi:10.1101/2022.05.03.490418.
# Assays:
# [1] = target: aged human serum albumin (human) (UniProt P02768); test: SEC
# [2] = target: aged human serum albumin (human) (UniProt P02768); test: SEC + ELISA
# [3] = target: aged human serum albumin aggregates (human) (UniProt P02768); test: SEC + ELISA
stoichiometry N (HSA molecules) [1],fold less Aß bound than by fHSA monomers [2] [times less],fold less Aß bound than by fHSA monomers [3] [times less],Substance
8,,,aged human serum albumin (from UniProt P02768 25-609) (natural protein)
,4,12,amyloid beta peptide 1-42
